This sample holds only a part of the variants without activity.
How the values were obtained:
[1] = test system: biotinyl-Phe-oxazolone; assay: self-aminoacylation, catalytic enhancement (BFO) (fold over background); higher = more active; k-Seq, kA / k0A0; sequences stand for … in GGGAAUGGAUCCACAUCUACGAAUUC…UUCACUGCAGACUUGACGAAGCUG
How it was run: (§1)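 Mutagenized RNA pools (0.43 μM; 21-nt variable region) were treated with 2–1250 μM of each biotinyl-aminoacyl-oxazolone. Conditions were 50 μL HEPES/NaCl/KCl/MgCl2/CaCl2 buffer, 5% acetonitrile, pH 6.9–7.0, room temperature, 90 minutes. Catalytic enhancement, the median kA relative to the uncatalyzed rate, was derived from streptavidin capture, qPCR and Illumina sequencing.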

[2] = test system: biotinyl-Ile-oxazolone; assay: self-aminoacylation, catalytic enhancement (BIO) (fold over background); higher = more active; k-Seq, kA / k0A0; sequences stand for … in GGGAAUGGAUCCACAUCUACGAAUUC…UUCACUGCAGACUUGACGAAGCUG
How it was run: as §1

[3] = test system: biotinyl-Leu-oxazolone; assay: self-aminoacylation, catalytic enhancement (BLO) (fold over background); higher = more active; k-Seq, kA / k0A0; sequences stand for … in GGGAAUGGAUCCACAUCUACGAAUUC…UUCACUGCAGACUUGACGAAGCUG
How it was run: as §1

[4] = test system: biotinyl-Met-oxazolone; assay: self-aminoacylation, catalytic enhancement (BMO) (fold over background); higher = more active; k-Seq, kA / k0A0; sequences stand for … in GGGAAUGGAUCCACAUCUACGAAUUC…UUCACUGCAGACUUGACGAAGCUG
How it was run: as §1

[5] = test system: biotinyl-Trp-oxazolone; assay: self-aminoacylation, catalytic enhancement (BWO) (fold over background); higher = more active; k-Seq, kA / k0A0; sequences stand for … in GGGAAUGGAUCCACAUCUACGAAUUC…UUCACUGCAGACUUGACGAAGCUG
How it was run: as §1

[6] = test system: biotinyl-Val-oxazolone; assay: self-aminoacylation, catalytic enhancement (BVO) (fold over background); higher = more active; k-Seq, kA / k0A0; sequences stand for … in GGGAAUGGAUCCACAUCUACGAAUUC…UUCACUGCAGACUUGACGAAGCUG
How it was run: as §1

Sequence | self-aminoacylation [1] | self-aminoacylation [2] | self-aminoacylation [3] | self-aminoacylation [4] | self-aminoacylation [5] | self-aminoacylation [6]
CAGUUAGCUAAUAGUCGCAAG [Fam3.1 aminoacylation ribozyme variant] | 1.67 | 1.21 | 1.04 | 1.17 | 0.96 | 1.32
CAGUUUGCUAAUAGGCGCAAG [Fam3.1 aminoacylation ribozyme variant] | 0.95 | 1.21 | 1.35 | 1.14 | 0.744 | 1.27
CAGUUUGCUAAUAGUCACAAG [Fam3.1 aminoacylation ribozyme variant] | 2.59 | 1.04 | 1.11 | 1.04 | 1.3 | 0.952
CAUCUUCAAACAAUCGGUCUG [Fam1A.1 aminoacylation ribozyme variant] | 47 | 1.14 | 1.96 | 1.48 | 24.5 | 1.23
CCAAACUUCAAGCAAUCGGCC [Fam1B.1 aminoacylation ribozyme variant] | 4.84 | 2.38 | 3.45 | 2.21 | 5.38 | 3.04
CCAAACUUCUAGCAAUCGGUC [Fam1B.1 aminoacylation ribozyme variant] | 1.01 | 0.961 | 0.733 | 0.839 | 0.667 | 0.952
CCAAGCUUCAAGCAAUCGGUC [Fam1B.1 aminoacylation ribozyme variant] | 86.5 | 1.35 | 2.5 | 1.51 | 44.9 | 1.3
CCACAAUUCAAACAAUCGGUC [Fam1B.1 aminoacylation ribozyme variant] | 18.1 | 1.26 | 1.19 | 1.08 | 8.88 | 1.04
CCACAAUUCAAGCAAUCGAUC [Fam1B.1 aminoacylation ribozyme variant] | 0.898 | 0.742 | 0.685 | 0.699 | 0.675 | 0.888
CCACAAUUCAAGCACUCGGUC [Fam1B.1 aminoacylation ribozyme variant] | 0.706 | 1.4 | 1.24 | 1.17 | 0.787 | 1.18
CCACAAUUCAAGCCAUCGGUC [Fam1B.1 aminoacylation ribozyme variant] | 1.19 | 1.46 | 1.59 | 1.47 | 1.3 | 1.7
CCACAAUUCAGGCAAUCGGUC [Fam1B.1 aminoacylation ribozyme variant] | 1.29 | 1.47 | 1.46 | 1.37 | 0.94 | 1.42
CCACACAUCAAGCAAUCGAUC [Fam1B.1 aminoacylation ribozyme variant] | 0.914 | 0.575 | 0.581 | 0.439 | 0.513 | 0.748
CCACACAUCAAGCAAUCGGCC [Fam1B.1 aminoacylation ribozyme variant] | 4.94 | 2.66 | 2.25 | 1.65 | 2.88 | 2.9
CCACACAUCAAGCAGUCGGUC [Fam1B.1 aminoacylation ribozyme variant] | 0.847 | 0.93 | 0.799 | 0.686 | 0.457 | 1.05
CCACACAUCAAGCCAUCGGUC [Fam1B.1 aminoacylation ribozyme variant] | 1.07 | 1.19 | 1.01 | 1.04 | 0.895 | 1.27
CCACACAUCAAGCUAUCGGUC [Fam1B.1 aminoacylation ribozyme variant] | 0.819 | 0.954 | 0.914 | 0.888 | 0.735 | 1.15
CCACACAUCAGGCAAUCGGUC [Fam1B.1 aminoacylation ribozyme variant] | 1.15 | 1.25 | 1.12 | 1.03 | 0.806 | 1.3
CCACACAUCCAGCAAUCGGUC [Fam1B.1 aminoacylation ribozyme variant] | 0.873 | 1.2 | 0.983 | 1.05 | 0.847 | 1.08
CCACACCACAAGCAAUCGGUC [Fam1B.1 aminoacylation ribozyme variant] | 0.854 | 1.13 | 0.949 | 0.999 | 0.871 | 1.1
CCACACCGCAAGCAAUCGGUC [Fam1B.1 aminoacylation ribozyme variant] | 0.867 | 1.12 | 0.882 | 1.13 | 1.02 | 1.13

Sequence | self-aminoacylation [1] | self-aminoacylation [2] | self-aminoacylation [3] | self-aminoacylation [4] | self-aminoacylation [5] | self-aminoacylation [6]
CCACACCUCAAGCAAUCGGUU [Fam1B.1 aminoacylation ribozyme variant] | 0.882 | 1.43 | 1.98 | 1.14 | 1.57 | 2.1
CCACACCUCAAGCUAUCGGUC [Fam1B.1 aminoacylation ribozyme variant] | 1.1 | 1.37 | 1.18 | 1.21 | 0.809 | 1.27
CCACACCUCAAGGAAUCGGUC [Fam1B.1 aminoacylation ribozyme variant] | 0.875 | 1.34 | 1.34 | 1.02 | 1.32 | 1.26
CCACACCUCAUGCAAUCGGUC [Fam1B.1 aminoacylation ribozyme variant] | 1.19 | 0.959 | 0.685 | 0.839 | 0.975 | 1.05
CCACACGUCAAGCAAACGGUC [Fam1B.1 aminoacylation ribozyme variant] | 0.465 | 0.784 | 0.809 | 0.86 | 0.619 | 1.37
CCACACGUCAAGCAAUAGGUC [Fam1B.1 aminoacylation ribozyme variant] | 1.1 | 0.655 | 0.652 | 0.765 | 0.587 | 0.831
CCACACGUCAAGCCAUCGGUC [Fam1B.1 aminoacylation ribozyme variant] | 1.11 | 1.34 | 1.48 | 1.58 | 1.21 | 2.45
CCACACGUCAUGCAAUCGGUC [Fam1B.1 aminoacylation ribozyme variant] | 0.974 | 1.18 | 0.972 | 1.26 | 1.61 | 1.34
CCACACGUCGAGCAAUCGGUC [Fam1B.1 aminoacylation ribozyme variant] | 0.83 | 1.17 | 1.41 | 0.959 | 1.22 | 2.02
CCACACGUGAAGCAAUCGGUC [Fam1B.1 aminoacylation ribozyme variant] | 0.826 | 0.9 | 0.721 | 1.32 | 1.39 | 1.2
CCACACUACAAACAAUCGGUC [Fam1B.1 aminoacylation ribozyme variant] | 1.41 | 0.904 | 0.652 | 0.642 | 0.993 | 0.883
CCACACUACAAGCAAUCGUUC [Fam1B.1 aminoacylation ribozyme variant] | 0.644 | 0.643 | 0.54 | 0.548 | 0.468 | 0.679
CCACACUAUAAGCAAUCGGUC [Fam1B.1 aminoacylation ribozyme variant] | 0.92 | 0.789 | 0.59 | 0.567 | 0.386 | 0.793
CCACACUCCAAACAAUCGGUC [Fam1B.1 aminoacylation ribozyme variant] | 10.9 | 0.982 | 1.09 | 0.917 | 6.11 | 1.31
CCACACUCCAAGAAAUCGGUC [Fam1B.1 aminoacylation ribozyme variant] | 0.991 | 1.31 | 0.848 | 0.768 | 1 | 0.973
CCACACUCCAAGCAAACGGUC [Fam1B.1 aminoacylation ribozyme variant] | 1.06 | 0.95 | 0.861 | 0.934 | 1.21 | 0.773
CCACACUCCAAGCAAUAGGUC [Fam1B.1 aminoacylation ribozyme variant] | 1.06 | 0.741 | 0.569 | 0.686 | 0.637 | 0.845
CCACACUCCAAGCAAUCGGCC [Fam1B.1 aminoacylation ribozyme variant] | 2.68 | 1.63 | 1.28 | 1.36 | 2.59 | 2.36
CCACACUCCAAGCAGUCGGUC [Fam1B.1 aminoacylation ribozyme variant] | 0.733 | 1.32 | 1.11 | 1.04 | 1.04 | 1.49
CCACACUCCAAGUAAUCGGUC [Fam1B.1 aminoacylation ribozyme variant] | 1.97 | 1.01 | 0.919 | 0.951 | 1.29 | 0.95
CCACACUCCUAGCAAUCGGUC [Fam1B.1 aminoacylation ribozyme variant] | 0.91 | 0.943 | 0.746 | 0.631 | 0.519 | 1.04

Source: the supplement of paper PMC9233669
